Test results as given in paper PMC10696467 (The Journal of Biological Chemistry, 2023).

B1: speckle-type POZ protein (SPOP) WT, residues 28-359 (domain or fragment)
chain: KVVKFSYMWTINNFSFCREEMGEVIKSSTFSSGANDKLKWCLRVNPKGLDEESKDYLSLYLLLVSCPKSEVRAKFKFSILNAKGEETKAMESQRAYRFVQGKDWGFKKFIRRDFLLDEANGLLPDDKLTLFCEVSVVQDSVNISGQNTMNMVKVPECRLADELGGLWENSRFTDCCLCVAGQEFQAHKAILAARSPVFSAMFEHEMEESKKNRVEINDVEPEVFKEMMCFIYTGKAPNLDKMADDLLAAADKYALERLKVMCEDALCSNLSVENAAEILILADLHSADQLKTQAVDFINYHASDVLETSGWKSMVVSHPHLVAEAYRSLASA
B2: C-terminal intrinsically disordered region of DAXX (cDAXX), fluorescently labeled (domain or fragment)
chain: SPMSSLQISNEKNLEPGKQISRSSGEQQNKGRIVSPSLLSEEPLAPSSIDAESNGEQPEELTLEEESPVSQLFELEIEALPLDTPSSVETDISSSRKQSEEPFTTVLENGAGMVSSTSFNGGVSPHNWGDSGPPCKKSRKEKKQTGSGPLGNSYVERQRSVHEKNGKKICTLPSPPSPLASLAPVADSSTRVDSPSHGLVTSSLCIPSPARLSQTPHSQPPRPGTCKTSVATQCDPEEIIVLSDSD
modifications: fluorescently labeled (fluorescently tagged cDAXX construct; the labeling methods give Rhodamine Red, N-terminal labeling, for cDAXX)
B3: SPOP R354H, residues 28-359 (domain or fragment)
chain: KVVKFSYMWTINNFSFCREEMGEVIKSSTFSSGANDKLKWCLRVNPKGLDEESKDYLSLYLLLVSCPKSEVRAKFKFSILNAKGEETKAMESQRAYRFVQGKDWGFKKFIRRDFLLDEANGLLPDDKLTLFCEVSVVQDSVNISGQNTMNMVKVPECRLADELGGLWENSRFTDCCLCVAGQEFQAHKAILAARSPVFSAMFEHEMEESKKNRVEINDVEPEVFKEMMCFIYTGKAPNLDKMADDLLAAADKYALERLKVMCEDALCSNLSVENAAEILILADLHSADQLKTQAVDFINYHASDVLETSGWKSMVVSHPHLVAEAYHSLASA
B4: fPuc peptide (fluorescently labeled SPOP-binding motif from the substrate Puckered) (peptide)
peptide: ENLACDEVTSTTSSSST
HELM: PEPTIDE1{[O=C1OC2(c3ccc(O)cc3Oc3cc(O)ccc32)c2ccc(C(=O)[*:2])cc21].E.N.L.A.C.D.E.V.T.S.T.T.S.S.S.S.T.[am]}$$$$V2.0
SMILES: CC(C)C[C@H](NC(=O)[C@H](CC(N)=O)NC(=O)[C@H](CCC(=O)O)NC(=O)c1ccc2c(c1)C(=O)OC21c2ccc(O)cc2Oc2cc(O)ccc21)C(=O)N[C@@H](C)C(=O)N[C@@H](CS)C(=O)N[C@@H](CC(=O)O)C(=O)N[C@@H](CCC(=O)O)C(=O)N[C@H](C(=O)N[C@H](C(=O)N[C@@H](CO)C(=O)N[C@H](C(=O)N[C@H](C(=O)N[C@@H](CO)C(=O)N[C@@H](CO)C(=O)N[C@@H](CO)C(=O)N[C@@H](CO)C(=O)N[C@H](C(N)=O)[C@@H](C)O)[C@@H](C)O)[C@@H](C)O)[C@@H](C)O)C(C)C

How the values were obtained:
[1] = biological target: the molecule itself; assay: composite-gradient multiangle light scattering
[2] = biological target: B1; assay: fluorescence polarisation
[3] = biological target: SPOP R221C, residues 28-359 (UniProt O43791 28-359, R221C); assay: fluorescence polarisation
[4] = biological target: B3; assay: fluorescence polarisation
[5] = biological target: SPOP mutBACK (Y353E), residues 28-359 (UniProt O43791 28-359, Y353E); assay: fluorescence polarisation

| Binder | Kd [1] | Kd [2] | Kd [3] | Kd [4] | Kd [5] |
| --- | --- | --- | --- | --- | --- |
| B1 | 2.7 µM |  |  |  |  |
| B2 |  | 1.2 µM | 3.2 µM | 3 µM |  |
| B3 | 26.9 µM |  |  |  |  |
| B4 |  | 9.8 µM | 5.9 µM | 5.1 µM | 4.3 µM |
